Measurements: the DeepSol protein solubility set

Assay: soluble on expression in E. coli; label from the status in PepcDB or PDB records

Soluble on expression in E. coli, not soluble:
SLSMVLLRGRLLSFRRAPLSIDDTQSYLYIEDGGLLLENGRIAAIGEYADIRETAPEDVEEKDHRPHLIVPGLIDMHLHFPQMQVIGSYAANLLEWLNTYTFPEECRFVESAHAQRIATHFYDELLRHGTTTAAAYCSVHKTSADAFFTEAMKRNMLMIGGKVMMDRNAPQGLLDTPETSYDETRQVIADWHGRGRNHVAITPRFAITSTPKQMEAAQALAQEFPDLFIQTHLSENLDEIKYTCELYPEATDYTDIYVRYGLMGNKTLLGHAIHLSDREADVLSETGAVAVHCPTSNLFIGSGLFPMKKLQRREKPVRIAVATDIGGGSSYSMLRTMDEAYKIQQLLGERLNPLESWYLMTRGNAEALSMVDRIGTLEAGTDADITVLNASSTPAMALKMEVVKSLTEELFLMLTMGDDRTVVETYVAGRAMKSVLA
MGSDKIHHHHHHENKLVSGAVGLGFGTGPTFPGADENDSGLFPVVDLKIGQYVVVNQRGLGLEHSRSLGHGELSYGLGVGYDFTSRSVEDDLRLAGLSDVDAGAMATLFLEYQTGPFSYGLEVMRGLNSDGHEGTRAKLSGGYDIQLSERAGLSVSPYLIWADDNWMDSFFSVSNAQSVASGLAAYDANAGMSQAGLNLTASYALREQVIVFASVDYATLLGDAADSSVSFDDNAASLSAGVMFRF
MASETIHFSFANADVYIVARSPNNQNGTGDDTMSYSAKSFSALINAMRADGITRLEQLARQPFRNAQGFWSAEVKK
FASNWVSHTHEVIQTIDTCLYDIVEIESRQRFYLIRGSSSQLMADIDDMKSTLQLNLDKLEQLTRDNPEQNKRIHRFIDLVKQRLNLLNQLVQLKGSGKLDTQEGYDLLNQSQDMSHQVKSLGQEIKSVELVLLSERNTG
MGSDKIHHHHHHMNSINKNQPEKNHEDLKNKDSIDKIIELASDQTCFLCTTQGAKGNARPMAVQKVDKQGNIWFLSASDSNQNKEIQENSSVNLYFKGNQHSDFMHLYGEATVLRDETIIKELWNPVLKTWFTEGENDPRITIIKFTTKEGYYWDTKHGNFIAGIKMLIGAATGQTLDDSIEGSLQNQPVHNTHISHG
MGILAERLDSLSIETSSPDGQITGVFRPTSALSVHFRDGGYRGYTERGLERQLAALVASAWARYWRARQAAVAEATGEPAVPHQPWDTAGRRYRAERDRTRCEGMSAGHRVHVSHTGLRDWNVVVRDGTLSTLDEFGFAAELESGFTAAMRDHRHKLMMLRDKHLPR
MQIDFNSDMGESFGAWTIGDGVDTELMAFISSANIATGFHAGDPSTMRRTIEQAKRLGVAIGAHPGFRDLVGFGRRHINAPAQELVDDMLYQLGALRELARVQGVPLQHFKPHGALYMHLARDEEAARLLVENLQRLEPDLLLYCMPGSVICNVAQELGQPVVREFYADRAYDLSGSIVFTRNVRAHDPAEVAARVIRACQQGLVRTVEGDDLAIQFDSICLHSDTPGALALAQATRQALDGAGIEVRTPRLEHHHHHH
EVVVTGMQKMDKRLFTGAATKLDAEGVKLNGMADISRGLEGRAAGVSVQNVSGTFGTAPKIRVRGATSIYGSSKPLWVVDGVIMEDAVEVSADQLSSGDAETLISSAIAGLNADDIESFQILKDGSATSIYGARAMAGVIVVTTKKGK
MGSDKIHHHHHHMNILVDLTQIPIQKVGVGVYAKETFKFPNEDANELFFLLQDDDNDLRSTFLKSKIILVKSKFFRFFFCRFLLEQFYIPFLCYKYKINILHSLHYSFPIFLFKVKRIVTIHDLTFFIHPSVHTFIKRYYFRLFIKLACRYADRLICVSESTKKDLERICGRRSVSIDVIPLSCSPKMQVGEQELELVKKKFGVVSQYMLFIGTLEPRKNILNLINAFYKFSQKNRDYSLVIIGKKGWFYESIFKLVEELHLERSVVFTGFVTTKEKFILLSGAHSFIYPSIYEGFGLPVLEAITYGIPTITSKLSSLPEVAGNAALYINPYDVQSISDAIESVNCDEETRRKLIKNSEKQRLKYSWKKTANLTYSLYNRCGSI
MAWDLKVKMLGGNDFLVSVTNSMTVSELKKQIAQKIGVPAFQQRLAHQTAVLQDGLTLSSLGLGPSSTVMLVVQNCSEPLSILVRNERGHSNIYEVFLTQTVDTLKKKVSQREQVHEDQFWLSFEGRPMEDKELLGEYGLKPQCTVIKHLRLRGGGGDQCA
MGLTVEAADEKGLTLRLPYSQAIIGNPESGVVHGGAITTLMDTTCGISTVCVLPDFEICPTLDLRIDYMHPAEPHKDVYGFAECYRVTPNVIFTRGFAYQDDPGQPIAHVVGAFMRMGLEHHHHHH
MNPILAMLKENNISNEQINELFQTLTQNPLAAMATLAQLGLPQDKMQMVLAQVMQNPALIKQAVEELGLDFAKVEAAKAKLQQ
MQEYSVEVALVHPDDMVNLFGSNERHLKLIEENLGVVIHARTERVQILGETEEAIELARLTIKALLVLVGRGMIVNTSDVVTALSMAQNGNIDKFVALYEEEIIKDSYGKPIRVKTLGQKVYVDSVKSHDIVFGIGPAGTGKTFLAVTLAITALKRGQVKRIILTRPAVEAGESLGFLPGDLKEKVDPYLRPVYDALYQILGKEQTSRLMEREIIEIAPLAYMRGRTLDDAFVILDEAQNTTIMQMKMFLTRLGFNSKMIVNGDISQIDLPKNVKSGLVDASEKLKDIKQIDFVYLSAKDVVRHPVVAEIINAYEESTDVR
MGSDKIHHHHHHMANPLTGYNFAYLDEQTKRMIRRAILKAVAIPGYQVPFGGREMPMPYGWGTGGIQLTASVIGENDVLKVIDQGADDTTNAVSIRQFFKRVTGVATTERTEDATLIQTRHRIPETPLVEDQILIYQVPIPEPLRFIEPRETETRTMHALEEYGVMQVKLYEDIARFGHIATTYAYPVKVNGRYVMDPSPIPKFDNPKMHMMPALQLFGAGREKRIYAVPPYTPVESLDFDDHPFTVQEWDEPCAICGSRHSYLDEVVLDDSGQRMFVCSDTDYCRQQSEGQKK
MAEKSYTRFVINGKEQELKFCLQALRLLDENGGPMQFVSQTMQGGITNFTDVVYYALIHTNEGITYEAVQKEIENMFNAEKLDLDEILKYNKAVVLNSFFFQKTVKKLLGTMTAEQQKSFENLYA

Soluble on expression in E. coli, soluble:
GAMGNKEKADQQKAITDIVALENALDMYKLDNSVYPTTDQGLEALVTKPSSPEPRNYRNGGYIKRLPKDPWGNEYQYMSPGDKGTIDIFTLGADGQEGGEGAAADIGNWNMQDFQ
MAHHHHHHMSAHEEEIDMILSMFSDECERYEGTSDSIIVHLPFHFELQVTLPPHGYPDASYPKLYLLSSPNAQLASAFSQAVYRRMRDEISLGIPMLALLIPLAQSVAEELKDLKERAEKARQDEAVERMSELQRKEEHRRETGIAIWSGQAIVDRRSRFVAHMARVHSMDEVREVVGHLRSVKSIACAAHPTIYAYRFTDANGVLQKDSDDDGESGASIKMMFLLDHLQIDGYVVVVTRWWGGILLGPDRFKHIMEVTKNLLLTIPEREKEMAASAKRKSLR
MASVASCDSRPSSDELPGDPSSQEEDEDYDFEDRVSDSGSYSSASSDYDDLEPEWLDSVQKNGELFYLELSEDEEESLLPETPTVNHVRFSENEIIIEDDYKERKKYEPKLKQFTKILRRKRLLPKRCNKKNSNDNGPVSILKHQSNQKTGVIVQQRYKDVNVYVNPKKLTVIKAKEQLKLLEVLVGIIHQTKWSWRRTGKQGDGERLVVHGLLPGGSAMKSGQVLIGDVLVAVNDVDVTTENIERVLSCIPGPMQVKLTFENAYDVKRETSHPRQKKTQSNTSDLVKLLWGEEVEGIQQSGLNTPHIIMYLTLQLDSETSKEEQEILYHYPMSEASQKLKSVRGIFLTLCDMLENVTGTQVTSSSLLLNGKQIHVAYWKESDKLLLIGLPAEEIELPSSAHTHGERN
MSLQKLAVFDFDSTLVNAETIESLARAWGVFDEVKTITLKAMNGETDFHKSLILRVSKLKNMPLKLAKEVCESLPLFEGALELVSALKEKNYKVVCFSGGFDLATNHYRDLLHLDAAFSNTLIVENDALNGLVTGHMMFSHSKGEMLLVLQRLLNISKTNTLVVGDGANDLSMFKHAHIKIAFNAKEVLKQHATHCINEPDLALIKPLIEGHHHHHH
MVAYPGPMPRSPSPGQTPDAPTSGGGSTDSTRQRIVAAAKEEFARHGIAGARVDRIAKQARTSKERVYAYFRSKEALYAHVAERETTALIEATQLDPADLPGYAGILFDHFAARPDHYRLITWGRLELAESADNTSGPLQATIAGKLDKLRDAQRIGLLDPAWDPVDVLALINQIAMTWAGQPEIAAAAADQAVDPSVTARRAALVTAVEHMFPRPDRDQRPNRLT
EDCQNLLKPCSLCEKRPRDGNIIHGRTGHLVTCFHCARRLKKAGASCPICKKEIQLVIKVFIA
MVTFASGDMLADDLGRFDYVVAMDSLIYYTDADIAAALDRLGARTRHSVVFTVAPRTPFLMAFWTMGKLFPRSDRSPVMIPHPFQPLNEATGGRLVKVGRVSRGFYISECLEFRPLEHHHHHH
RKMFRALMPALEELTFDPSSAHPSLVVSSSGRRVECSEQKAPPAGEDPRQFDKAVAVVAHQQLSEGEHYWEVDVGDKPRWALGVIAAEAPRRGRLHAVPSQGLWLLGLREGKILEAHVEAKEPRALRSPERRPTRIGLYLSFGDGVLSFYDASDADALVPLFAFHERLPRPVYPFFDVCWHDKGKNAQPLLLV
NATTLPEALKLMQYIGDAIGTIRDPQELFRTVTDKLRLLFAFDSAVIITIDRERREASVFFEMLRFELPEQLRHQTRSIAGTWLEGHLDDRTVTVASIARDIPSFGADGAPLLWTLHELGMRQIVLSPLRSGGRVIGFLSFVSAEEKLWSDGDKSLLSGVSSSIAIAVSNALAYEELRQREAETSMQLAINNALFTI
MIGNFTIVDGHVHTFSSEEVSLKVLKSFNKIYNIEFENPGTGTIEDVLNNMKNEGIDYTVMANFAPVKILHANNKWTLEEARKHPNLIPLVSFHPDMDVSFTSLLEEYISDGAKGIKLHPMAQGFDPRDERLKGLYEFCNDIAFPIVFHCGRVANARLNSFSDVETLEPLIAMYENISFVLTHMADGNVKDVLRLSRTYKNVYFDTSIVISGYPPIRETNKPSWLDDSIPEGVINEIGAHRVVFGSDYPWGSPAWDLKRFMSMKLDDEEKKNILGENAMKLFLNTAYN
MTKIFAYAIREDEKPFLKEWEDAHKDVEVEYTDKLLTPETVALAKGADGVVVYQQLDYIAETLQALADNGITKMSLRNVGVDNIDMAKAKELGFQITNVPVYSPNAIAEHAAIQAARILRQDKAMDEKVARHDLRWAPTIGREVRDQVVGVVGTGHIGQVFMQIMEGFGAKVITYDIFRNPELEKKGYYVDSLDDLYKQADVISLHVPDVPANVHMINDESIAKMKQDVVIVNVSRGPLVDTDAVIRGLDSGKIFGYAMDVYEGEVGIFNEDWEGKEFPDARLADLIARPNVLVTPHTAFYTTHAVRNMVVKAFDNNLELVEGKEAETPVKVG
MSLGARELHAHLKGGAATVCRCWAVTRRDGTVFGFTDHDRDLTFEGRLFRAETGLTSSALQQTTGLSVDNAETVGALSHVSVTEADLLAGRFDGAEVLAWLVNWADVSERLLQFRGTLGEITHSGGRFRAELRGLTEALNQPQGRVYQRSCQAVLGDRACGFDLSAEEFATERAVETVVGRQSFSFEGLHSFPDRWFEQGRLVVMTGEAAGAMGVIKSDRRRGEVRTVELWEALGPQITVGDRVRLEAGCDRMAETCRLKFNNLRNFRGFPHLSGEDWLSAYPAATGTHDGGSLWEEGHHHHHH
